Measurements published in the supplement of paper PMC12458215.
± gives the uncertainty stated by the source.

Test system: HEK293T
Test: plasma membrane surface immunostaining intensity (anti-HA, deep receptor scanning) (arbitrary fluorescence units); higher = higher plasma membrane expression

MQGENFTIWSIFFLEGFSQYPGLEVVLFVFSLVMYLTTLLGNSTLILITILDSRLKTPMYLFLGNLSFMDICYTSASVPTLLVNLLSSQKTIIFSGCAVQMYLSLAMGSTECVLLAVMAYDRYVAICNPLRYSIIMNRCVCARMATVSWVTGCLTALLETSFALQIPLCGNLIDHFTCEILAVLKLACTSSLLMNTIMLVVSILLLPIPMLLVCISYIFILSTILRITSAEGRNKAFSTCGAHLTVVILYYGAALSMYLKPSSSNAQKIDKIISLLYGVLTPMLNPIIYSLRNKEVKDAMKKLLGKITLHQTHEHL [OR2K2]
plasma membrane surface immunostaining intensity (GPCR class: A (Olfactory)): 144 ± 20

MQGLNHTSVSEFILVGFSAFPHLQLMLFLLFLLMYLFTLLGNLLIMATVWSERSLHMPMYLFLCALSITEILYTVAIIPRMLADLLSTQRSIAFLACASQMFFSFSFGFTHSFLLTVMGYDRYVAICHPLRYNVLMSLRGCTCRVGCSWAGGLVMGMVVTSAIFHLAFCGHKEIHHFFCHVPPLLKLACGDDVLVVAKGVGLVCITALLGCFLLILLSYAFIVAAILKIPSAEGRNKAFSTCASHLTVVVVHYGFASVIYLKPKGPQSPEGDTLMGITYTVLTPFLSPIIFSLRNKELKVAMKKTCFTKLFPQNC [OR10H5]
plasma membrane surface immunostaining intensity (GPCR class: A (Olfactory)): 129 ± 21

MQGPLLLPGLCFLLSLFGAVTQKTKTSCAKCPPNASCVNNTHCTCNHGYTSGSGQKLFTFPLETCNDINECTPPYSVYCGFNAVCYNVEGSFYCQCVPGYRLHSGNEQFSNSNENTCQDTTSSKTTEGRKELQKIVDKFESLLTNQTLWRTEGRQEISSTATTILRDVESKVLETALKDPEQKVLKIQNDSVAIETQAITDNCSEERKTFNLNVQMNSMDIRCSDIIQGDTQGPSAIAFISYSSLGNIINATFFEEMDKKDQVYLNSQVVSAAIGPKRNVSLSKSVTLTFQHVKMTPSTKKVFCVYWKSTGQGSQWSRDGCFLIHVNKSHTMCNCSHLSSFAVLMALTSQEEDPVLTVITYVGLSVSLLCLLLAALTFLLCKAIRNTSTSLHLQLSLCLFLAHLLFLVGIDRTEPKVLCSIIAGALHYLYLAAFTWMLLEGVHLFLTARNLTVVNYSSINRLMKWIMFPVGYGVPAVTVAISAASWPHLYGTADRCWLHLDQGFMWSFLGPVCAIFSANLVLFILVFWILKRKLSSLNSEVSTIQNTRMLAFKATAQLFILGCTWCLGLLQVGPAAQVMAYLFTIINSLQGFFIFLVYCLLSQQVQKQYQKWFREIVKSKSESETYTLSSKMGPDSKPSEGDVFPGQVKRKY [ADGRE3]
plasma membrane surface immunostaining intensity (GPCR class: B): 344 ± 13

MQLNNNVTEFILLGLTQDPFWKKIVFVIFLRLYLGTLLGNLLIIISVKTSQALKNPMFFFLFYLSLSDTCLSTSITPRMIVDALLKKTTISFSECMIQVFSSHVFGCLEIFILILTAVDRYVDICKPLHYMTIISQWVCGVLMAVAWVGSCVHSLVQIFLALSLPFCGPNVINHCFCDLQPLLKQACSETYVVNLLLVSNSGAICAVSYVMLIFSYVIFLHSLRNHSAEVIKKALSTCVSHIIVVILFFGPCIFMYTCLATVFPMDKMIAVFYTVGTSFLNPVIYTLKNTEVKSAMRKLWSKKLITDDKR [OR4C16]
plasma membrane surface immunostaining intensity (GPCR class: A (Olfactory)): 162 ± 72

MQMADAATIATMNKAAGGDKLAELFSLVPDLLEAANTSGNASLQLPDLWWELGLELPDGAPPGHPPGSGGAESADTEARVRILISVVYWVVCALGLAGNLLVLYLMKSMQGWRKSSINLFVTNLALTDFQFVLTLPFWAVENALDFKWPFGKAMCKIVSMVTSMNMYASVFFLTAMSVTRYHSVASALKSHRTRGHGRGDCCGRSLGDSCCFSAKALCVWIWALAALASLPSAIFSTTVKVMGEELCLVRFPDKLLGRDRQFWLGLYHSQKVLLGFVLPLGIIILCYLLLVRFIADRRAAGTKGGAAVAGGRPTGASARRLSKVTKSVTIVVLSFFLCWLPNQALTTWSILIKFNAVPFSQEYFLCQVYAFPVSVCLAHSNSCLNPVLYCLVRREFRKALKSLLWRIASPSITSMRPFTATTKPEHEDQGLQAPAPPHAAAEPDLLYYPPGVVVYSGGRYDLLPSSSAY [RXFP3]
plasma membrane surface immunostaining intensity (GPCR class: A): 979 ± 290

MQPESGANGTVIAEFILLGLLEAPGLQPVVFVLFLFAYLVTVRGNLSILAAVLVEPKLHTPMYFFLGNLSVLDVGCISVTVPSMLSRLLSRKRAVPCGACLTQLFFFHLFVGVDCFLLTAMAYDRFLAICRPLTYSTRMSQTVQRMLVAASWACAFTNALTHTVAMSTLNFCGPNVINHFYCDLPQLFQLSCSSTQLNELLLFAVGFIMAGTPMALIVISYIHVAAAVLRIRSVEGRKKAFSTCGSHLTVVAIFYGSGIFNYMRLGSTKLSDKDKAVGIFNTVINPMLNPIIYSFRNPDVQSAIWRMLTGRRSLA [OR3A1]
plasma membrane surface immunostaining intensity (GPCR class: A (Olfactory)): 125 ± 18

MQPPPSLCGRALVALVLACGLSRIWGEERGFPPDRATPLLQTAEIMTPPTKTLWPKGSNASLARSLAPAEVPKGDRTAGSPPRTISPPPCQGPIEIKETFKYINTVVSCLVFVLGIIGNSTLLRIIYKNKCMRNGPNILIASLALGDLLHIVIDIPINVYKLLAEDWPFGAEMCKLVPFIQKASVGITVLSLCALSIDRYRAVASWSRIKGIGVPKWTAVEIVLIWVVSVVLAVPEAIGFDIITMDYKGSYLRICLLHPVQKTAFMQFYKTAKDWWLFSFYFCLPLAITAFFYTLMTCEMLRKKSGMQIALNDHLKQRREVAKTVFCLVLVFALCWLPLHLSRILKLTLYNQNDPNRCELLSFLLVLDYIGINMASLNSCINPIALYLVSKRFKNCFKSCLCCWCQSFEEKQSLEEKQSCLKFKANDHGYDNFRSSNKYSSS [EDNRB]
plasma membrane surface immunostaining intensity (GPCR class: A): 794 ± 140

MQPYTKNWTQVTEFVMMGFAGIHEAHLLFFILFLTMYLFTLVENLAIILVVGLDHRLRRPMYFFLTHLSCLEIWYTSVTVPKMLAGFIGVDGGKNISYADCLSQLFIFTFLGATECFLLAAMAYDRYVAICMPLHYGAFVSWGTCIRLAAACWLVGFLTPILPIYLLSQLTFYGPNVIDHFSCDASPLLALSCSDVTWKETVDFLVSLAVLLASSMVIAVSYGNIVWTLLHIRSAAERWKAFSTCAAHLTVVSLFYGTLFFMYVQTKVTSSINFNKVVSVFYSVVTPMLNPLIYSLRNKEVKGALGRVFSLNFWKGQ [OR6Q1]
plasma membrane surface immunostaining intensity (GPCR class: A (Olfactory)): 392 ± 120

MQRANHSTVTQFILVGFSVFPHLQLMLFLLFLLMYLFTLLGNLLIMATVWSERSLHTPMYLFLCALSVSEILYTVAIIPRMLADLLSTQRSIAFLACASQMFFSFSFGFTHSFLLTVMGYDRYVAICHPLRYNVLMSPRGCACLVGCSWAGGLVMGMVVTSAIFHLAFCGHKEIHHFACHVPPLLKLACGDDVLVVAKGVGLVCITALLGCFLLILLSYAFIVAAILKIPSAEGRNKAFSTCASHLTVVVVHYGFASVIYLKPKSPQSLEGDTLMGITYTVLTPFLSPIIFSLRNKELKVAMKKTFFSKLYPEKNVMM [OR10H1]
plasma membrane surface immunostaining intensity (GPCR class: A (Olfactory)): 121 ± 17

MQRPGPRLWLVLQVMGSCAAISSMDMERPGDGKCQPIEIPMCKDIGYNMTRMPNLMGHENQREAAIQLHEFAPLVEYGCHGHLRFFLCSLYAPMCTEQVSTPIPACRVMCEQARLKCSPIMEQFNFKWPDSLDCRKLPNKNDPNYLCMEAPNNGSDEPTRGSGLFPPLFRPQRPHSAQEHPLKDGGPGRGGCDNPGKFHHVEKSASCAPLCTPGVDVYWSREDKRFAVVWLAIWAVLCFFSSAFTVLTFLIDPARFRYPERPIIFLSMCYCVYSVGYLIRLFAGAESIACDRDSGQLYVIQEGLESTGCTLVFLVLYYFGMASSLWWVVLTLTWFLAAGKKWGHEAIEANSSYFHLAAWAIPAVKTILILVMRRVAGDELTGVCYVGSMDVNALTGFVLIPLACYLVIGTSFILSGFVALFHIRRVMKTGGENTDKLEKLMVRIGLFSVLYTVPATCVIACYFYERLNMDYWKILAAQHKCKMNNQTKTLDCLMAASIPAVEIFMVKIFMLLVVGITSGMWIWTSKTLQSWQQVCSRRLKKKSRRKPASVITSGGIYKKAQHPQKTHHGKYEIPAQSPTCV [FZD10]
plasma membrane surface immunostaining intensity (GPCR class: F): 2420 ± 580

MRAPGALLARMSRLLLLLLLKVSASSALGVAPASRNETCLGESCAPTVIQRRGRDAWGPGNSARDVLRARAPREEQGAAFLAGPSWDLPAAPGRDPAAGRGAEASAAGPPGPPTRPPGPWRWKGARGQEPSETLGRGNPTALQLFLQISEEEEKGPRGAGISGRSQEQSVKTVPGASDLFYWPRRAGKLQGSHHKPLSKTANGLAGHEGWTIALPGRALAQNGSLGEGIHEPGGPRRGNSTNRRVRLKNPFYPLTQESYGAYAVMCLSVVIFGTGIIGNLAVMCIVCHNYYMRSISNSLLANLAFWDFLIIFFCLPLVIFHELTKKWLLEDFSCKIVPYIEVASLGVTTFTLCALCIDRFRAATNVQMYYEMIENCSSTTAKLAVIWVGALLLALPEVVLRQLSKEDLGFSGRAPAERCIIKISPDLPDTIYVLALTYDSARLWWYFGCYFCLPTLFTITCSLVTARKIRKAEKACTRGNKRQIQLESQMNCTVVALTILYGFCIIPENICNIVTAYMATGVSQQTMDLLNIISQFLLFFKSCVTPVLLFCLCKPFSRAFMECCCCCCEECIQKSSTVTSDDNDNEYTTELELSPFSTIRREMSTFASVGTHC [GPR37]
plasma membrane surface immunostaining intensity (GPCR class: A): 158 ± 26

MRAVFIQGAEEHPAAFCYQVNGSCPRTVHTLGIQLVIYLACAAGMLIIVLGNVFVAFAVSYFKALHTPTNFLLLSLALADMFLGLLVLPLSTIRSVESCWFFGDFLCRLHTYLDTLFCLTSIFHLCFISIDRHCAICDPLLYPSKFTVRVALRYILAGWGVPAAYTSLFLYTDVVETRLSQWLEEMPCVGSCQLLLNKFWGWLNFPLFFVPCLIMISLYVKIFVVATRQAQQITTLSKSLAGAAKHERKAAKTLGIAVGIYLLCWLPFTIDTMVDSLLHFITPPLVFDIFIWFAYFNSACNPIIYVFSYQWFRKALKLTLSQKVFSPQTRTVDLYQE [TAAR5]
plasma membrane surface immunostaining intensity (GPCR class: A): 381 ± 140

MRFTFTSRCLALFLLLNHPTPILPAFSNQTYPTIEPKPFLYVVGRKKMMDAQYKCYDRMQQLPAYQGEGPYCNRTWDGWLCWDDTPAGVLSYQFCPDYFPDFDPSEKVTKYCDEKGVWFKHPENNRTWSNYTMCNAFTPEKLKNAYVLYYLAIVGHSLSIFTLVISLGIFVFFRSLGCQRVTLHKNMFLTYILNSMIIIIHLVEVVPNGELVRRDPVSCKILHFFHQYMMACNYFWMLCEGIYLHTLIVVAVFTEKQRLRWYYLLGWGFPLVPTTIHAITRAVYFNDNCWLSVETHLLYIIHGPVMAALVVNFFFLLNIVRVLVTKMRETHEAESHMYLKAVKATMILVPLLGIQFVVFPWRPSNKMLGKIYDYVMHSLIHFQGFFVATIYCFCNNEVQTTVKRQWAQFKIQWNQRWGRRPSNRSARAAAAAAEAGDIPIYICHQELRNEPANNQGEESAEIIPLNIIEQESSA [CALCR]
plasma membrane surface immunostaining intensity (GPCR class: B): 5000 ± 720
